Source: US9206411B2, “Staphylococcal Phage2638A endolysin amidase domain is lytic for Staphylococcus aureus” (priority 2012, dated 2015)

What was measured:
[1] = tested on: S. aureus MN8; assay: Plate lysis, susceptibility of strains to 2638A (Table 1); assay type: cell-based
Method: (§1) Purified proteins for each construct were diluted in sterile nickel column elution buffer, and 6 μL of lysostaphin (11 μg) or the constructs (0.2 nmoles or ˜11 μg for the repaired construct 2638A 1-180Mut-486) was spotted onto a freshly spread lawn of S. aureus strain NRS119 (SA LinR #12; linezolid resistant) growing cells that had air dried for 30 min on tryptic soy agar (TSA) plates. L=[…] Lysostaphin (Sigma); Spot 1=11 μg; all other constructs are 0.2 nmoles (˜11 μg for the repaired construct 2638A 1-180Mut-486) […]. The spotted plates were air dried for 10 min in a laminar flow hood and incubated overnight in a 37° C. environment. Scoring of the cleared spots occurred within 20 h of plating the cells.
(§2) The Plate Lysis assay results (FIG. 3) agree with the turbidity reduction assay. Each of the M23 peptidase dependent or SH3b-truncating constructs showing weak activity on S. aureus strain Newman strain. In addition to the Plate Lysis results in FIG. 3, we have also examined numerous strains with reduced but real lytic activity (Table 1). However, the plate lysis results with the 2638A endolysin constructs are extremely novel in appearance. Plate lysis results are routinely visualized as a discrete cleared spot on a lawn of bacteria after a single overnight of culture. […] In contrast, the 2638A endolysin is unique in that sometimes this cleared zone requires multiple days to appear. […] Thus, there is also a likelihood that the enzyme might work preferentially on late log or stationary phase cells in the plate lysis assay, as the 3 day old culture is likely not growing as quickly as the freshly-plated overnight culture.

[2] = tested on: S. hyicus; assay: as above; assay type: cell-based
Method: as §1, §2

[3] = tested on: S. aureus Reynolds (CP5); assay: as above; assay type: cell-based
Method: as §1, §2

[4] = tested on: S. warneri; assay: as above; assay type: cell-based
Method: as §1, §2

[5] = tested on: S. aureus Reynolds (CP-); assay: as above; assay type: cell-based
Method: as §1, §2

[6] = tested on: S. aureus Tanji 20; assay: as above; assay type: cell-based
Method: as §1, §2

[7] = tested on: S. aureus 305; assay: as above; assay type: cell-based
Method: as §1, §2

[8] = tested on: S. aureus Tanji 19; assay: as above; assay type: cell-based
Method: as §1, §2

[9] = tested on: MRSA strain NRS382; assay: Control of systemic MRSA infection in a murine model; assay type: in vivo, Staphylococcus aureus
[10] = tested on: S. aureus NRS 384 (MRSA); assay: Plate lysis, susceptibility of strains to 2638A (Table 1); assay type: cell-based; design: key to Susceptibility to lysis by 2638A, day 3+: − = >100 pmol; (+) = very faint lysis zone; + = 100 pmol; ++ = 10 pmol; +++ = 1 pmol
Method: as §1, §2

[11] = tested on: S. aureus Tanji 21; assay: as above; assay type: cell-based; design: key to Susceptibility to lysis by 2638A, day 3+: − = >100 pmol; (+) = very faint lysis zone; + = 100 pmol; ++ = 10 pmol; +++ = 1 pmol
Method: as §1, §2

[12] = tested on: S. aureus Tanji 47; assay: as above; assay type: cell-based; design: key to Susceptibility to lysis by 2638A, day 3+: − = >100 pmol; (+) = very faint lysis zone; + = 100 pmol; ++ = 10 pmol; +++ = 1 pmol
Method: as §1, §2

[13] = tested on: S. simulans; assay: as above; assay type: cell-based; design: key to Susceptibility to lysis by 2638A, day 3+: − = >100 pmol; (+) = very faint lysis zone; + = 100 pmol; ++ = 10 pmol; +++ = 1 pmol
Method: as §1, §2

B1: 2638A Endolysin: 486 amino acid staphylococcal phage 2638A endolysin (SEQ ID NO:4), C-terminally 6×His-tagged; M23 peptidase, amidase, SH3b domains (protein)
chain: MLTAIDYLTKKGWKISSDPRTYDGYPKNYGYRNYHENGINYDEFCGGYHRAFDVYSNETNDVPAVTSGTVIEANDYGNFGGTFVIRDANDNDWIYGHLQRGSMRFVVGDKVNQGDIIGLQGNSNYYDNPMSVHLHLQLRPKDAKKDEKSQVCSGLAMEKYDITNLNAKQDKSKNGSVKELKHIYSNHIKGNKITAPKPSIQGVVIHNDYGSMTPSQYLPWLYARENNGTHVNGWASVYANRNEVLWYHPTDYVEWHCGNQWANANLIGFEVCESYPGRISDKLFLENEEATLKVAADVMKSYGLPVNRNTVRLHNEFFGTSCPHRSWDLHVGKGEPYTTTNINKMKDYFIKRIKHYYDGGKLEVSKAATIKQSDVKQEVKKQEAKQIVKATDWKQNKDGIWYKAEHASFTVTAPEGIITRYKGPWTGHPQAGVLQKGQTIKYDEVQKFDGHVWVSWETFEGETVYMPVRTWDAKTGKVGKLWGEIKLEHHHHHH
modifications: C-terminal His6 tag; Mutated Phage 2638a
notes: M23 peptidase, amidase, SH3b domains
- Susceptibility to lysis by 2638A, day 1 ([1]; day 1): − (− = >100 pmol)
- Susceptibility to lysis by 2638A, day 3+ ([1]; day 3+): ++ (++ = 10 pmol)
- Susceptibility to lysis by 2638A, day 1 ([2]; day 1): − (− = >100 pmol)
- Susceptibility to lysis by 2638A, day 3+ ([2]; day 3+): − (− = >100 pmol)
- Susceptibility to lysis by 2638A, day 1 ([3]; day 1): − (− = >100 pmol)
- Susceptibility to lysis by 2638A, day 3+ ([3]; day 3+): − (− = >100 pmol)
- Susceptibility to lysis by 2638A, day 1 ([4]; day 1): − (− = >100 pmol)
- Susceptibility to lysis by 2638A, day 3+ ([4]; day 3+): − (− = >100 pmol)
- Susceptibility to lysis by 2638A, day 1 ([5]; day 1): − (− = >100 pmol)
- Susceptibility to lysis by 2638A, day 3+ ([5]; day 3+): − (− = >100 pmol)
- Susceptibility to lysis by 2638A, day 1 ([6]; day 1): − (− = >100 pmol)
- Susceptibility to lysis by 2638A, day 3+ ([6]; day 3+): + (+ = 100 pmol)
- Susceptibility to lysis by 2638A, day 1 ([7]; day 1): − (− = >100 pmol)
- Susceptibility to lysis by 2638A, day 3+ ([7]; day 3+): − (− = >100 pmol)
- Susceptibility to lysis by 2638A, day 1 ([8]; day 1): − (− = >100 pmol)
- Susceptibility to lysis by 2638A, day 3+ ([8]; day 3+): + (+ = 100 pmol)
- % Survival ([9]; 0 hours, Balb/c mice, I.P. 4×10^7 CFU, treated 30 min post infection: 2638A 200 μg/mouse I.P., Vancomycin 375 μg/mouse s.c., Oxacillin 1250 μg/mouse s.c.): 100%
- % Survival ([9]; 4 hours, same model and doses): 100%
- % Survival ([9]; 8 hours, same model and doses): 100%
- % Survival ([9]; 12 hours, same model and doses): 100%
- % Survival ([9]; 16 hours, same model and doses): 100%
- % Survival ([9]; 20 hours, same model and doses): 100%
- % Survival ([9]; 24 hours, same model and doses): 100%
- % Survival ([9]; 28 hours, same model and doses): 100%
- % Survival ([9]; 32 hours, same model and doses): 100%
- % Survival ([9]; 36 hours, same model and doses): 100%
- % Survival ([9]; 40 hours, same model and doses): 100%
- % Survival ([9]; 44 hours, same model and doses): 100%
- % Survival ([9]; 48 hours (end of the experiment), same model and doses): 100%
- septicemia score at the end of the experiment ([9]; 48 hours, score 0-5 per Table 4): 0
- Mean NRS382 Titer in the Blood ([9]; Recovered 48 hr post infection from surviving mice, same doses): 0.8 ± 1.9 × 10^1 CFU/ml
- Susceptibility to lysis by 2638A, day 1 ([10]; day 1): − (− = >100 pmol)
- Susceptibility to lysis by 2638A, day 3+ ([10]; day 3+): (+)
- Susceptibility to lysis by 2638A, day 1 ([11]; day 1): − (− = >100 pmol)
- Susceptibility to lysis by 2638A, day 3+ ([11]; day 3+): (+)
- Susceptibility to lysis by 2638A, day 1 ([12]; day 1): − (− = >100 pmol)
- Susceptibility to lysis by 2638A, day 3+ ([12]; day 3+): (+)
- Susceptibility to lysis by 2638A, day 1 ([13]; day 1): − (− = >100 pmol)
- Susceptibility to lysis by 2638A, day 3+ ([13]; day 3+): (+)
